B3: PACT C77S (recessive DYT16 mutant) (other, UniProt O75569 1-313, looked up)
chain: MSQSRHRAEAPPLEREDSGTFSLGKMITAKPGKTPIQVLHEYGMKTKNIPVYECERSDVQIHVPTFTFRVTVGDITSTGEGTSKKLAKHRAAEAAINILKANASICFAVPDPLMPDPSKQPKNQLNPIGSLQELAIHHGWRLPEYTLSQEGGPAHKREYTTICRLESFMETGKGASKKQAKRNAAEKFLAKFSNISPENHISLTNVVGHSLGCTWHSLRNSPGEKINLLKRSLLSIPNTDYIQLLSEIAKEQGFNITYLDIDELSANGQYQCLAELSTSPITVCHGSGISCGNAQSDAAHNALQYLKIIAERK
notes: N-terminal Myc or FLAG tag in co-IP; GAL4-DBD or VP16-AD fusion in mammalian two-hybrid; histidine tag in PKR activity assay
B4: PACT C213F (recessive DYT16 mutant) (other, UniProt O75569 1-313, looked up)
chain: MSQSRHRAEAPPLEREDSGTFSLGKMITAKPGKTPIQVLHEYGMKTKNIPVYECERSDVQIHVPTFTFRVTVGDITCTGEGTSKKLAKHRAAEAAINILKANASICFAVPDPLMPDPSKQPKNQLNPIGSLQELAIHHGWRLPEYTLSQEGGPAHKREYTTICRLESFMETGKGASKKQAKRNAAEKFLAKFSNISPENHISLTNVVGHSLGFTWHSLRNSPGEKINLLKRSLLSIPNTDYIQLLSEIAKEQGFNITYLDIDELSANGQYQCLAELSTSPITVCHGSGISCGNAQSDAAHNALQYLKIIAERK
notes: as for B3

In series [1] the target is T1, wild type (wt) PACT, O75569.
T1 chain: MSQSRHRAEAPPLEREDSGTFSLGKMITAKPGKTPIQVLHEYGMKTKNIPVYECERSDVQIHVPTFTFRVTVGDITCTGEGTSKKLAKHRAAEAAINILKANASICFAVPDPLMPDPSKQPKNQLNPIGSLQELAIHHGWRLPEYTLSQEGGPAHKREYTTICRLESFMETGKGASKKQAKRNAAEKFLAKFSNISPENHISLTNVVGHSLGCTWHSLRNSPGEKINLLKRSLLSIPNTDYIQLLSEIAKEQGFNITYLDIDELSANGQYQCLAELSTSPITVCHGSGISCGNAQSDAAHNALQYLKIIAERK

The target in series [2] is T2, PACT P222L (recessive DYT16 mutant), O75569.
T2 chain: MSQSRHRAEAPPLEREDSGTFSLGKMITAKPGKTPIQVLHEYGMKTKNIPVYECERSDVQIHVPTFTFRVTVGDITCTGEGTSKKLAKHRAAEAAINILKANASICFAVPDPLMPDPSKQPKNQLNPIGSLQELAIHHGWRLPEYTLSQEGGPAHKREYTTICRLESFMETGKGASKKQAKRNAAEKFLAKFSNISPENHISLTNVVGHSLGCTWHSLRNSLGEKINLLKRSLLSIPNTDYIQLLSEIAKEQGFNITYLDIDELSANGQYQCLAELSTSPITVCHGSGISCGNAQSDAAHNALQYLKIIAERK

Series [3] has as its target T3, PACT C213R (recessive DYT16 mutant), O75569.
T3 chain: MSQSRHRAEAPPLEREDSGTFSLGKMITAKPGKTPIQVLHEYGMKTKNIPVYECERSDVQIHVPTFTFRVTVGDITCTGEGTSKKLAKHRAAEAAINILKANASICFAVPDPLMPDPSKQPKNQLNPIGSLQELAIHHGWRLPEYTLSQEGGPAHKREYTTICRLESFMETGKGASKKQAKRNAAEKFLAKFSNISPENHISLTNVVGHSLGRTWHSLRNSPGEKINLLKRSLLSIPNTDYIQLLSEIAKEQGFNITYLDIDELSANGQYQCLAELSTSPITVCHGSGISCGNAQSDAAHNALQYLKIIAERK

Series [4] addresses T4, PACT C213F (recessive DYT16 mutant), O75569.
T4 chain: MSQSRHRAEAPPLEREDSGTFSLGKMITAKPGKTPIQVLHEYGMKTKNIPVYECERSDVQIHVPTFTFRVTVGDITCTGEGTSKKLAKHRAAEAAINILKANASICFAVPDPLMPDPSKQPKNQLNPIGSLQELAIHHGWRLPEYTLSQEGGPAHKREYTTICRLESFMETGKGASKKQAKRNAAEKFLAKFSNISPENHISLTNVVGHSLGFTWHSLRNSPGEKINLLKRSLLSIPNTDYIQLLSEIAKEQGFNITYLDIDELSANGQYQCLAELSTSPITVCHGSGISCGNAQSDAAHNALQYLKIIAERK

In series [5] the target is T5, PACT N102S (dominant DYT16 mutant), O75569.
T5 chain: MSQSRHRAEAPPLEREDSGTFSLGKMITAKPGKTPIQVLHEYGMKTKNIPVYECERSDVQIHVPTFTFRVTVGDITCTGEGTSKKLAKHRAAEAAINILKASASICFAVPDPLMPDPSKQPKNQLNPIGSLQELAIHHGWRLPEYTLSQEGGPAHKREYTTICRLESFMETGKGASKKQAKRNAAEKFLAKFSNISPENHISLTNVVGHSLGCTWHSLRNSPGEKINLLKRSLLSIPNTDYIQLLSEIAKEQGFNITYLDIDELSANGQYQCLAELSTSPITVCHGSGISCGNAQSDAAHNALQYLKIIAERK

Series [6] addresses T6, PACT T34S (dominant DYT16 mutant), O75569.
T6 chain: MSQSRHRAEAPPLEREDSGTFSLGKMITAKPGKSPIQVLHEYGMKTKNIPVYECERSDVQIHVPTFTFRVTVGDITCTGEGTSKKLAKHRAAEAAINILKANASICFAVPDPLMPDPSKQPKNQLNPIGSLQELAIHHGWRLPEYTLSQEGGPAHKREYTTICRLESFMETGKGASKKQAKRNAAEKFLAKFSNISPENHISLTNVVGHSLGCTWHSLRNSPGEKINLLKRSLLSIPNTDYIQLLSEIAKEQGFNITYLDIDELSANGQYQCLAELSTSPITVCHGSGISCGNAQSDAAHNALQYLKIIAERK

Series [7] addresses T7, PACT C77S (recessive DYT16 mutant), O75569.
T7 chain: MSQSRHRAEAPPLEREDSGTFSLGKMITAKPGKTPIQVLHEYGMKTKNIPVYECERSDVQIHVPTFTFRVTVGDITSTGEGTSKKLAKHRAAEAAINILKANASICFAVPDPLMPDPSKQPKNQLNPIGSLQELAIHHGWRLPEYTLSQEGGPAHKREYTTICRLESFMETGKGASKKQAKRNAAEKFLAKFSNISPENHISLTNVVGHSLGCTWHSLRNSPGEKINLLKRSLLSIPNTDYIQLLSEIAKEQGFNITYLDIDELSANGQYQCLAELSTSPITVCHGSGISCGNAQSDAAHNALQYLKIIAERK

The target of series [8] is T8, flag-tagged dominant negative PKR mutant, K296R (UniProt P19525 1-551).
T8 construct: Used in the co-IP assays in HeLa cells; also called flag-PKR; flag-tagged K296R
Briefly: co-IP in HeLa cells: Myc-PACT on Myc-agarose, flag-PKR K296R detected by anti-flag blot. The method, then: (§1) In all cases HeLa M cells were seeded at 20% confluency in 6-well dishes 24 hours prior to co-transfecting 250 ng of each flag- and/or Myc-tagged constructs using Effectene® reagent (Qiagen). Cells were harvested 24 hours post transfection and harvested in IP buffer. Whole cell extract was then immunoprecipitated overnight at 4° C. on a rotating wheel with either flag-agarose (Sigma) or Myc-agarose beads (Thermo Scientific). Immunoprecipitates were then washed 3-5 times in IP buffer followed by resuspension and boiling for 5 minutes in 1×Laemmle buffer. Samples were then resolved on 10% SDS-PAGE denaturing gels and transferred to PVDF membranes. […] The cell lysates were immunoprecipitated in 15 μL of Myc-agarose beads and resolved on 10% SDS-PAGE denaturing gels and transferred to PVDF membranes.
The immunoprecipitates were analyzed by western blot analysis with anti-flag (FIG. 4A) or anti-Myc (FIG. 4B) antibodies (co-IP panel) and with anti-Myc (FIG. 4A) or anti-flag (B) for IP panels.

Series [9] has as its target B4. Briefly: co-IP in HeLa cells: flag-PACT on flag-agarose, Myc-PACT detected by anti-Myc blot. As to the method: as §1
Series [10] addresses B3. Briefly: mammalian two-hybrid, luciferase reporter; PACT proteins as GAL4-DBD bait and VP16-AD prey.

B1: PKR (protein)
chain: MAGDLSAGFFMEELNTYRQKQGVVLKYQELPNSGPPHDRRFTFQVIIDGREFPEGEGRSKKEAKNAAAKLAVEILNKEKKAVSPLLLTTTNSSEGLSMGNYIGLINRIAQKKRLTVNYEQCASGVHGPEGFHYKCKMGQKEYSIGTGSTKQEAKQLAAKLAYLQILSEETSVKSDYLSSGSFATTCESQSNSLVTSTLASESSSEGDFSADTSEINSNSDSLNSSSLLMNGLRNNQRKAKRSLAPRFDLPDMKETKYTVDKRFGMDFKEIELIGSGGFGQVFKAKHRIDGKTYVIKRVKYNNEKAEREVKALAKLDHVNIVHYNGCWDGFDYDPETSDDSLESSDYDPENSKNSSRSKTKCLFIQMEFCDKGTLEQWIEKRRGEKLDKVLALELFEQITKGVDYIHSKKLIHRDLKPSNIFLVDTKQVKIGDFGLVTSLKNDGKRTRSKGTLRYMSPEQISSQDYGKEVDLYALGLILAELLHVCDTAFETSKFFTDLRDGIISDIFDKKEKTLLQKLLSKKPEDRPNTSEILRTLTVWKKSPEKNERHTC
With B1, the “PKR autophosphorylation, in vitro PKR kinase activity assay” value in series [1] is “When the purified recombinant PACT proteins were added, a dose dependent increase (left: 400 µg, right: 4.0 ng) in activated autophosphorylated PKR was observed”; in series [2], “In all cases, recessive mutations demonstrated a slightly increased capacity to activate PKR ... as compared to wt PACT”; in series [3], “In all cases, recessive mutations demonstrated a slightly increased capacity to activate PKR ... as compared to wt PACT”; in [4], “In all cases, recessive mutations demonstrated a slightly increased capacity to activate PKR ... as compared to wt PACT”; in series [5], “The dominant mutants (lower panel) also showed enhanced ability to activate PKR at 400 µg”; in [6], “The dominant mutants (lower panel) also showed enhanced ability to activate PKR at 400 µg”. For the same molecule, in series [7], the “PKR autophosphorylation, in vitro PKR kinase activity assay” value was “In all cases, recessive mutations demonstrated a slightly increased capacity to activate PKR ... as compared to wt PACT”.

B2: wild type (wt) PACT (other, UniProt O75569 1-313, looked up)
chain: MSQSRHRAEAPPLEREDSGTFSLGKMITAKPGKTPIQVLHEYGMKTKNIPVYECERSDVQIHVPTFTFRVTVGDITCTGEGTSKKLAKHRAAEAAINILKANASICFAVPDPLMPDPSKQPKNQLNPIGSLQELAIHHGWRLPEYTLSQEGGPAHKREYTTICRLESFMETGKGASKKQAKRNAAEKFLAKFSNISPENHISLTNVVGHSLGCTWHSLRNSPGEKINLLKRSLLSIPNTDYIQLLSEIAKEQGFNITYLDIDELSANGQYQCLAELSTSPITVCHGSGISCGNAQSDAAHNALQYLKIIAERK
notes: also called Myc-PACT; flag-PACT
In the case of B2, in series [8], the binding result is listed as “binds”.
As for B3, the binding result in series [8] and in series [9] was “binds” in each case.
Consider B4, for which the binding result in series [8] was “binds”. For the same molecule, the “fold higher interaction than wt PACT-wt PACT” value in series [10] is roughly 9 fold.

B5: PACT C213R (recessive DYT16 mutant) (other, UniProt O75569 1-313, looked up)
chain: MSQSRHRAEAPPLEREDSGTFSLGKMITAKPGKTPIQVLHEYGMKTKNIPVYECERSDVQIHVPTFTFRVTVGDITCTGEGTSKKLAKHRAAEAAINILKANASICFAVPDPLMPDPSKQPKNQLNPIGSLQELAIHHGWRLPEYTLSQEGGPAHKREYTTICRLESFMETGKGASKKQAKRNAAEKFLAKFSNISPENHISLTNVVGHSLGRTWHSLRNSPGEKINLLKRSLLSIPNTDYIQLLSEIAKEQGFNITYLDIDELSANGQYQCLAELSTSPITVCHGSGISCGNAQSDAAHNALQYLKIIAERK
notes: as for B3
Consider B5, for which, in series [8], the binding result was “binds”.

(Values after patent US20230233512A1 (UNIVERSITY OF SOUTH CAROLINA, published 2023).)
